Earlier results on two substances are cited in publication PMC4586255.

Like-named read-outs stand apart in the source and are kept apart here.

In series [1] the target is PCNA (Homo sapiens) (UniProt P12004).
The target is the same in series [2]. The source holds these as a separate data set.

PCNA (Homo sapiens), sequence (P12004 whole entry): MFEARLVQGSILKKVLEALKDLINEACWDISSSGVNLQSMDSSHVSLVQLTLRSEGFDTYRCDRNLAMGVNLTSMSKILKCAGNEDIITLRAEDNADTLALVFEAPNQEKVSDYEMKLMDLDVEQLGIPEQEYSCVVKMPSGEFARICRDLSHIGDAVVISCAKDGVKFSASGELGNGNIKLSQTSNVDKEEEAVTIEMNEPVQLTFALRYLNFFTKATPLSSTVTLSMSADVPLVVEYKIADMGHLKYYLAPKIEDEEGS
p21 PIP-box peptide PIP-box peptide, sequence (P38936 139-160): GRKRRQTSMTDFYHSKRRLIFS
FEN1 PIP-box peptide PIP-box peptide, sequence (P39748 331-350): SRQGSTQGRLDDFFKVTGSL

“FEN1 PIP-box peptide PIP-box peptide (from UniProt P39748)”: in series [1], the Kd is 59 µM. In the case of “p21 PIP-box peptide PIP-box peptide (from UniProt P38936)”, in series [2], the Kd is 0.082 µM.

The term Kd denotes the equilibrium constant for the complex coming apart.
